# Source: US20260015399A1 (Boehringer Ingelheim, published 2026)
# *1 amine or outer side, *2 acyl side, *3 side chain or, on linkers, in order; H or OH if unused. Side-chain parts run from the residue outwards. The star is where a group is joined. C18 diacid = O=C(O)CCCCCCCCCCCCCCCCC(=O)*; γGlu = O=C(O)[C@H](CCC(=O)[*:2])N[*:1]; Isovaleryl = CC(C)CC(=O)*; Ahx = NCCCCCC(=O)O
# T1: human NPY2 receptor (human, UniProt P49146 1-381)
# T1 construct: whole, on cells; also called hNPY2-R; hNPY2R
# T1 sequence (looked up): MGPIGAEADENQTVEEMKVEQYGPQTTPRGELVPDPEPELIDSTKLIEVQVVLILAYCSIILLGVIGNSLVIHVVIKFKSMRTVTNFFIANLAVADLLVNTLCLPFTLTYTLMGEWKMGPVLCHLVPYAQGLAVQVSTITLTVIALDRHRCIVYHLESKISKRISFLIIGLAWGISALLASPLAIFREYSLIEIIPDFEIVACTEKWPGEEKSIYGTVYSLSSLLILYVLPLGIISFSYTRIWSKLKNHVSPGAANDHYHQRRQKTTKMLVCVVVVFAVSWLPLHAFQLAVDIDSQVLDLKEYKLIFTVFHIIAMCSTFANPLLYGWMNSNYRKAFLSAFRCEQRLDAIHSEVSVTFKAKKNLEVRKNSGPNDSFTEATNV
# B1: Compound 113 (peptide)
# peptide: Isovaleryl-APEK([Ahx-γGlu-C18 diacid])PEEDATPEEIQRYYVSLRHYQNWLTRQRY-NH2
# SMILES: CC[C@H](C)[C@H](NC(=O)[C@H](CCC(=O)O)NC(=O)[C@H](CCC(=O)O)NC(=O)[C@@H]1CCCN1C(=O)[C@@H](NC(=O)[C@H](C)NC(=O)[C@H](CC(=O)O)NC(=O)[C@H](CCC(=O)O)NC(=O)[C@H](CCC(=O)O)NC(=O)[C@@H]1CCCN1C(=O)[C@H](CCCCNC(=O)CCCCCNC(=O)CC[C@H](NC(=O)CCCCCCCCCCCCCCCCC(=O)O)C(=O)O)NC(=O)[C@H](CCC(=O)O)NC(=O)[C@@H]1CCCN1C(=O)[C@H](C)NC(=O)CC(C)C)[C@@H](C)O)C(=O)N[C@@H](CCC(N)=O)C(=O)N[C@@H](CCCNC(=N)N)C(=O)N[C@@H](Cc1ccc(O)cc1)C(=O)N[C@@H](Cc1ccc(O)cc1)C(=O)N[C@H](C(=O)N[C@@H](CO)C(=O)N[C@@H](CC(C)C)C(=O)N[C@@H](CCCNC(=N)N)C(=O)N[C@@H](Cc1c[nH]cn1)C(=O)N[C@@H](Cc1ccc(O)cc1)C(=O)N[C@@H](CCC(N)=O)C(=O)N[C@@H](CC(N)=O)C(=O)N[C@@H](Cc1c[nH]c2ccccc12)C(=O)N[C@@H](CC(C)C)C(=O)N[C@H](C(=O)N[C@@H](CCCNC(=N)N)C(=O)N[C@@H](CCC(N)=O)C(=O)N[C@@H](CCCNC(=N)N)C(=O)N[C@@H](Cc1ccc(O)cc1)C(N)=O)[C@@H](C)O)C(C)C
# B2: Compound 119 (peptide)
# peptide: Isovaleryl-APEK([Ahx-γGlu-C18 diacid])PEEDATPEESQRYYVSLRHYYNWLTRQRY-NH2
# SMILES: CC(C)CC(=O)N[C@@H](C)C(=O)N1CCC[C@H]1C(=O)N[C@@H](CCC(=O)O)C(=O)N[C@@H](CCCCNC(=O)CCCCCNC(=O)CC[C@H](NC(=O)CCCCCCCCCCCCCCCCC(=O)O)C(=O)O)C(=O)N1CCC[C@H]1C(=O)N[C@@H](CCC(=O)O)C(=O)N[C@@H](CCC(=O)O)C(=O)N[C@@H](CC(=O)O)C(=O)N[C@@H](C)C(=O)N[C@H](C(=O)N1CCC[C@H]1C(=O)N[C@@H](CCC(=O)O)C(=O)N[C@@H](CCC(=O)O)C(=O)N[C@@H](CO)C(=O)N[C@@H](CCC(N)=O)C(=O)N[C@@H](CCCNC(=N)N)C(=O)N[C@@H](Cc1ccc(O)cc1)C(=O)N[C@@H](Cc1ccc(O)cc1)C(=O)N[C@H](C(=O)N[C@@H](CO)C(=O)N[C@@H](CC(C)C)C(=O)N[C@@H](CCCNC(=N)N)C(=O)N[C@@H](Cc1c[nH]cn1)C(=O)N[C@@H](Cc1ccc(O)cc1)C(=O)N[C@@H](Cc1ccc(O)cc1)C(=O)N[C@@H](CC(N)=O)C(=O)N[C@@H](Cc1c[nH]c2ccccc12)C(=O)N[C@@H](CC(C)C)C(=O)N[C@H](C(=O)N[C@@H](CCCNC(=N)N)C(=O)N[C@@H](CCC(N)=O)C(=O)N[C@@H](CCCNC(=N)N)C(=O)N[C@@H](Cc1ccc(O)cc1)C(N)=O)[C@@H](C)O)C(C)C)[C@@H](C)O
# B3: Compound 123 (peptide)
# peptide: Isovaleryl-APEK([Ahx-γGlu-C18 diacid])PEEDAAPEELQKYYVSLRHYYNWLTRQRY-NH2
# SMILES: CC(C)CC(=O)N[C@@H](C)C(=O)N1CCC[C@H]1C(=O)N[C@@H](CCC(=O)O)C(=O)N[C@@H](CCCCNC(=O)CCCCCNC(=O)CC[C@H](NC(=O)CCCCCCCCCCCCCCCCC(=O)O)C(=O)O)C(=O)N1CCC[C@H]1C(=O)N[C@@H](CCC(=O)O)C(=O)N[C@@H](CCC(=O)O)C(=O)N[C@@H](CC(=O)O)C(=O)N[C@@H](C)C(=O)N[C@@H](C)C(=O)N1CCC[C@H]1C(=O)N[C@@H](CCC(=O)O)C(=O)N[C@@H](CCC(=O)O)C(=O)N[C@@H](CC(C)C)C(=O)N[C@@H](CCC(N)=O)C(=O)N[C@@H](CCCCN)C(=O)N[C@@H](Cc1ccc(O)cc1)C(=O)N[C@@H](Cc1ccc(O)cc1)C(=O)N[C@H](C(=O)N[C@@H](CO)C(=O)N[C@@H](CC(C)C)C(=O)N[C@@H](CCCNC(=N)N)C(=O)N[C@@H](Cc1c[nH]cn1)C(=O)N[C@@H](Cc1ccc(O)cc1)C(=O)N[C@@H](Cc1ccc(O)cc1)C(=O)N[C@@H](CC(N)=O)C(=O)N[C@@H](Cc1c[nH]c2ccccc12)C(=O)N[C@@H](CC(C)C)C(=O)N[C@H](C(=O)N[C@@H](CCCNC(=N)N)C(=O)N[C@@H](CCC(N)=O)C(=O)N[C@@H](CCCNC(=N)N)C(=O)N[C@@H](Cc1ccc(O)cc1)C(N)=O)[C@@H](C)O)C(C)C
# B4: Compound 120 (peptide)
# peptide: Isovaleryl-APAK([Ahx-γGlu-C18 diacid])PEEAATPEEIQRYYVALRHYYNWLTRQRY-NH2
# SMILES: CC[C@H](C)[C@H](NC(=O)[C@H](CCC(=O)O)NC(=O)[C@H](CCC(=O)O)NC(=O)[C@@H]1CCCN1C(=O)[C@@H](NC(=O)[C@H](C)NC(=O)[C@H](C)NC(=O)[C@H](CCC(=O)O)NC(=O)[C@H](CCC(=O)O)NC(=O)[C@@H]1CCCN1C(=O)[C@H](CCCCNC(=O)CCCCCNC(=O)CC[C@H](NC(=O)CCCCCCCCCCCCCCCCC(=O)O)C(=O)O)NC(=O)[C@H](C)NC(=O)[C@@H]1CCCN1C(=O)[C@H](C)NC(=O)CC(C)C)[C@@H](C)O)C(=O)N[C@@H](CCC(N)=O)C(=O)N[C@@H](CCCNC(=N)N)C(=O)N[C@@H](Cc1ccc(O)cc1)C(=O)N[C@@H](Cc1ccc(O)cc1)C(=O)N[C@H](C(=O)N[C@@H](C)C(=O)N[C@@H](CC(C)C)C(=O)N[C@@H](CCCNC(=N)N)C(=O)N[C@@H](Cc1c[nH]cn1)C(=O)N[C@@H](Cc1ccc(O)cc1)C(=O)N[C@@H](Cc1ccc(O)cc1)C(=O)N[C@@H](CC(N)=O)C(=O)N[C@@H](Cc1c[nH]c2ccccc12)C(=O)N[C@@H](CC(C)C)C(=O)N[C@H](C(=O)N[C@@H](CCCNC(=N)N)C(=O)N[C@@H](CCC(N)=O)C(=O)N[C@@H](CCCNC(=N)N)C(=O)N[C@@H](Cc1ccc(O)cc1)C(N)=O)[C@@H](C)O)C(C)C
# B5: Compound 121 (peptide)
# peptide: Isovaleryl-APEK([Ahx-γGlu-C18 diacid])PEADASPEELQRYYVQLRHYYNWLTRQRY-NH2
# SMILES: CC(C)CC(=O)N[C@@H](C)C(=O)N1CCC[C@H]1C(=O)N[C@@H](CCC(=O)O)C(=O)N[C@@H](CCCCNC(=O)CCCCCNC(=O)CC[C@H](NC(=O)CCCCCCCCCCCCCCCCC(=O)O)C(=O)O)C(=O)N1CCC[C@H]1C(=O)N[C@@H](CCC(=O)O)C(=O)N[C@@H](C)C(=O)N[C@@H](CC(=O)O)C(=O)N[C@@H](C)C(=O)N[C@@H](CO)C(=O)N1CCC[C@H]1C(=O)N[C@@H](CCC(=O)O)C(=O)N[C@@H](CCC(=O)O)C(=O)N[C@@H](CC(C)C)C(=O)N[C@@H](CCC(N)=O)C(=O)N[C@@H](CCCNC(=N)N)C(=O)N[C@@H](Cc1ccc(O)cc1)C(=O)N[C@@H](Cc1ccc(O)cc1)C(=O)N[C@H](C(=O)N[C@@H](CCC(N)=O)C(=O)N[C@@H](CC(C)C)C(=O)N[C@@H](CCCNC(=N)N)C(=O)N[C@@H](Cc1c[nH]cn1)C(=O)N[C@@H](Cc1ccc(O)cc1)C(=O)N[C@@H](Cc1ccc(O)cc1)C(=O)N[C@@H](CC(N)=O)C(=O)N[C@@H](Cc1c[nH]c2ccccc12)C(=O)N[C@@H](CC(C)C)C(=O)N[C@H](C(=O)N[C@@H](CCCNC(=N)N)C(=O)N[C@@H](CCC(N)=O)C(=O)N[C@@H](CCCNC(=N)N)C(=O)N[C@@H](Cc1ccc(O)cc1)C(N)=O)[C@@H](C)O)C(C)C
# B6: Compound 124 (peptide)
# peptide: Isovaleryl-APEK([Ahx-γGlu-C18 diacid])PEAAAEPEEIQRYYVSLRHYYNWLTRQRY-NH2
# SMILES: CC[C@H](C)[C@H](NC(=O)[C@H](CCC(=O)O)NC(=O)[C@H](CCC(=O)O)NC(=O)[C@@H]1CCCN1C(=O)[C@H](CCC(=O)O)NC(=O)[C@H](C)NC(=O)[C@H](C)NC(=O)[C@H](C)NC(=O)[C@H](CCC(=O)O)NC(=O)[C@@H]1CCCN1C(=O)[C@H](CCCCNC(=O)CCCCCNC(=O)CC[C@H](NC(=O)CCCCCCCCCCCCCCCCC(=O)O)C(=O)O)NC(=O)[C@H](CCC(=O)O)NC(=O)[C@@H]1CCCN1C(=O)[C@H](C)NC(=O)CC(C)C)C(=O)N[C@@H](CCC(N)=O)C(=O)N[C@@H](CCCNC(=N)N)C(=O)N[C@@H](Cc1ccc(O)cc1)C(=O)N[C@@H](Cc1ccc(O)cc1)C(=O)N[C@H](C(=O)N[C@@H](CO)C(=O)N[C@@H](CC(C)C)C(=O)N[C@@H](CCCNC(=N)N)C(=O)N[C@@H](Cc1c[nH]cn1)C(=O)N[C@@H](Cc1ccc(O)cc1)C(=O)N[C@@H](Cc1ccc(O)cc1)C(=O)N[C@@H](CC(N)=O)C(=O)N[C@@H](Cc1c[nH]c2ccccc12)C(=O)N[C@@H](CC(C)C)C(=O)N[C@H](C(=O)N[C@@H](CCCNC(=N)N)C(=O)N[C@@H](CCC(N)=O)C(=O)N[C@@H](CCCNC(=N)N)C(=O)N[C@@H](Cc1ccc(O)cc1)C(N)=O)[C@@H](C)O)C(C)C
# Biological target: T1, human NPY2 receptor
# Assay: RLB: displacement of 125I-PYY(1-36) from hNPY2R membranes
row,Ki [nM],Binder
1,3.53,B1
2,5.73,B2
3,3.65,B3
4,1.49,B4
5,1.45,B5
6,3.07,B6
